Reference: article PMC7232412

B1: unnamed (parent)
chain 1: MAVSESQLKKMVSKYKYRDLTVRETVNVITLYKDLKPVLDSYVFNDGSSRELMNLTGTIPVPYRGNTYNIPICLWLLDTYPYNPPICFVKPTSSMTIKTGKHVDANGKIYLPYLHEWKHPQSDLLGLIQVMIVVFGDEPPVFSRPISASYPPYQATGPPNTSYMPGMPGGISPYPSGYPPNPSGYPGCPYPPGGPYPATTSSQYPSQPPVTTVGPSRDGTISEDTIRASLISAVSDKLRWRMKEEMDRAQAELNALKRTEEDLKKGHQKLEEMVTRLDQEVAEVDKNIELLKKKDEELSSALEKMENQSENNDIDEVIIPTAPLYKQILNLYAEENAIEDTIFYLGEALRRGVIDLDVFLKHVRLLSRKQFQLRALMQKARKTAGLSDLY
chain 2: LQSRPEPTAPPEESFRSGVETTTPPQKQEPIDKELYPLTSLRSLFGNDPSSQ

Variants of: B1
Assay: yeast 2-hybrid assay
Details: with partner chain of the complex shown; parent: 1; read off a plot

| Variant | ratio to parent |
| --- | --- |
| chain 1 Y42A | 0.95 |
| chain 1 K10A | 2.9 |
| chain 1 Y110A | 0.35 |
| chain 1 K9A K10A | 9.3 |
| chain 1 S41A | 1.3 |
| chain 1 Y82A | 0.8 |
| chain 1 K16A | 2.4 |
| chain 1 M11A V12A S13A K14A | 1.9 |
| chain 1 Q7A L8A | 1.1 |
